The numbers were not newly measured in paper PMC4732575, which cites them from elsewhere.

For one data set, the target named is LDLR (Homo sapiens) (UniProt P01130).
The next data set has as its target CD36 (Homo sapiens) (UniProt P16671).

Sequence of PCSK9 (Q8NBP7 153-692): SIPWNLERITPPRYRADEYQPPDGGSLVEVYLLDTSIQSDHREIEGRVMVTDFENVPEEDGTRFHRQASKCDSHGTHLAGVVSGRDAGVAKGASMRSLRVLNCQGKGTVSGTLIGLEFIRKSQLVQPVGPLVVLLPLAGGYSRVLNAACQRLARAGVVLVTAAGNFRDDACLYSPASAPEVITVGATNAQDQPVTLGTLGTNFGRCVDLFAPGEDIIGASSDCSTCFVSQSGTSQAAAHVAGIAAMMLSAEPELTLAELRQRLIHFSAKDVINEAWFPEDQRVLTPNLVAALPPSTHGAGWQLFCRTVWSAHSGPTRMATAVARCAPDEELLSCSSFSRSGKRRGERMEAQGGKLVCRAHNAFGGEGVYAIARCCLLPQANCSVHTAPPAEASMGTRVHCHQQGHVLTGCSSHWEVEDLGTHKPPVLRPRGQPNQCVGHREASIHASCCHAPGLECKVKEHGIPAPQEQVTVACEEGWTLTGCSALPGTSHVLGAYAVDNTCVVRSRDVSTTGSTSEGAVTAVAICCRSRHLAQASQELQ
Sequence of CD36 (Homo sapiens) (P16671 2-472): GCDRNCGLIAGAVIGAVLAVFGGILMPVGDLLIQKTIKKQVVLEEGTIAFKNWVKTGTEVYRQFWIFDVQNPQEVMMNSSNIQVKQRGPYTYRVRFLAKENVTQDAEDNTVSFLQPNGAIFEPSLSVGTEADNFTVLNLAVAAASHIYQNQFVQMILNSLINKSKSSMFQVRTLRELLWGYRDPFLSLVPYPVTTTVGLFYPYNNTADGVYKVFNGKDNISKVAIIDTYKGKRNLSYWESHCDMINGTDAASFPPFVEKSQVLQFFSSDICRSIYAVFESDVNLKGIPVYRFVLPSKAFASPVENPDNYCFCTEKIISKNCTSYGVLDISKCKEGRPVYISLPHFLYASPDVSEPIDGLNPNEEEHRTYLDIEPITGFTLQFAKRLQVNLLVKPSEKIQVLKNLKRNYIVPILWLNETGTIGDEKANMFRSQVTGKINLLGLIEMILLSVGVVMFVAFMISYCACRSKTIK
Sequence of LDLR (Homo sapiens) (P01130 22-788): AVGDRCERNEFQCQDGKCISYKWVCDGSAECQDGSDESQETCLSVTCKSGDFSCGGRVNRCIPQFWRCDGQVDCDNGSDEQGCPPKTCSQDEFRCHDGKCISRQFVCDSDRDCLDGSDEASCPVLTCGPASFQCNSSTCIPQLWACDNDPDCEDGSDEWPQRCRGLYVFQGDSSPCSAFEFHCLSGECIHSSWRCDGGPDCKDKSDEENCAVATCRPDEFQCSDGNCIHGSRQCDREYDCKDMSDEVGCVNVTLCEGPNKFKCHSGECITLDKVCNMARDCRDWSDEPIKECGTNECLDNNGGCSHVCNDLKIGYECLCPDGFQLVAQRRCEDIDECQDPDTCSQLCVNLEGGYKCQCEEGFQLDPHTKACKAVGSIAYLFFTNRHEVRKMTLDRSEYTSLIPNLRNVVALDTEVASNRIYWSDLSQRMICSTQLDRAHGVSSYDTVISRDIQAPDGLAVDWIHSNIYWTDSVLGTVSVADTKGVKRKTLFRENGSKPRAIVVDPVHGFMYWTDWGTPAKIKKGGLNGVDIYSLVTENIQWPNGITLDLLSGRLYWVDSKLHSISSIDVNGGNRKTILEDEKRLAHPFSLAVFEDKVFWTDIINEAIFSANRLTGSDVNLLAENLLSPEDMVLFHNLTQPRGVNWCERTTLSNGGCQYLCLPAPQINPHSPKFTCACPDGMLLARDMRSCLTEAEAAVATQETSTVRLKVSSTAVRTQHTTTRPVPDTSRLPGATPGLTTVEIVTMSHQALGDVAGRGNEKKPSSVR

One may read the Kd as the concentration at which binding is half-saturated. Consider PCSK9 (from UniProt Q8NBP7), for which the Kd in the data set with LDLR (Homo sapiens) and in the data set with CD36 (Homo sapiens) was 1000 nM throughout.
